B1: Guanyl-specific ribonuclease Sa, P05798 (parent)
chain: DVSGTVCLSALPPEATDTLNLIASDGPFPYSQDGVVFQNRESVLPTQSYGYYHEYTVITPGARTRGTRRIITGEATQEDYYTGDHYATFSLIDQTC

Variants of: B1
Details: Kitasatospora aureofaciens, Thermal, structure 1RGG, whole UniProt chain shown
[1] = pH 3, 38.6 °C, CD, Glycine 30 mM
[2] = pH 8.5, 45.9 °C, CD, Mops 30 mM

Row | Variant | ddG of mutation (higher = less stable) (pH 7, 52.6 °C, CD, Mops 30 mM) [kcal/mol] | heat capacity change of unfolding (pH 7, 52.6 °C, CD, Mops 30 mM) [kcal/mol/K] | ddG of mutation (higher = less stable) (pH 7, 52.6 °C, DSC, Mops 30 mM) [kcal/mol] | heat capacity change of unfolding (pH 7, 52.6 °C, DSC, Mops 30 mM) [kcal/mol/K] | Tm (pH 7, CD, Mops 30 mM) [°C] | change of melting temperature, mutant - wild type (higher = more stable) (pH 7, CD, Mops 30 mM) [°C] | unfolding enthalpy (van 't Hoff) (pH 7, CD, Mops 30 mM) [kcal/mol] | ddG of mutation (higher = less stable) [1] [kcal/mol] | heat capacity change of unfolding [1] [kcal/mol/K] | Tm (pH 3, CD, Glycine 30 mM) [°C] | change of melting temperature, mutant - wild type (higher = more stable) (pH 3, CD, Glycine 30 mM) [°C] | unfolding enthalpy (van 't Hoff) (pH 3, CD, Glycine 30 mM) [kcal/mol] | Tm (pH 8.5, CD, Mops 30 mM) [°C] | change of melting temperature, mutant - wild type (higher = more stable) (pH 8.5, CD, Mops 30 mM) [°C] | unfolding enthalpy (van 't Hoff) (pH 8.5, CD, Mops 30 mM) [kcal/mol] | ddG of mutation (higher = less stable) [2] [kcal/mol] | heat capacity change of unfolding [2] [kcal/mol/K]
1 | D33A | 6.2 | 1.52 | 6 | 1.52 | 31.8 | -16 | 57 | – | – | – | – | – | – | – | – | – | –
2 | D79I | -2.9 | 1.52 | -2.8 | 1.52 | 57.4 | 9.6 | 89 | – | – | – | – | – | – | – | – | – | –
3 | D79Y | -2.9 | 1.52 | – | – | 57.4 | 9.6 | 84 | – | – | – | – | – | – | – | – | – | –
4 | D79L | – | – | -2.7 | 1.52 | 56.6 | 8.7 | 75 | – | – | – | – | – | – | – | – | – | –
5 | D79E | 0.3 | 1.52 | 0.3 | 1.52 | 47 | -0.8 | 90 | – | – | – | – | – | – | – | – | – | –
6 | D79A | -2.8 | 1.52 | -2.7 | 1.52 | 57 | 9.2 | 94 | 0.3 | 1.52 | 38.6 | -1.3 | 75 | 50.4 | 11.7 | 95 | – | –
7 | D79W | -2.3 | 1.52 | -2.3 | 1.52 | 55.4 | 7.6 | 88 | – | – | – | – | – | – | – | – | – | –
8 | D79N | -1.8 | 1.52 | -1.8 | 1.52 | 53.4 | 5.5 | 96 | 1.2 | 1.52 | 35.1 | -4.8 | 69 | 46.3 | 7.6 | 65 | -2.3 | 1.52
9 | D79F | – | – | -3 | 1.52 | 57.8 | 10 | 89 | 0.3 | 1.52 | 38.5 | -1.4 | 67 | 51.8 | 13.1 | 82 | -3.7 | 1.52
10 | D79R | -2.7 | 1.52 | -2.7 | 1.52 | 56.8 | 9 | 92 | – | – | – | – | – | – | – | – | – | –
11 | D79H | -1.8 | 1.52 | -1.8 | 1.52 | – | – | – | – | – | – | – | – | – | – | – | – | –
12 | D79K | -2.3 | 1.52 | -2.3 | 1.52 | 55.4 | 7.6 | 88 | – | – | – | – | – | – | – | – | – | –
13 | Q94K | -0.3 | 1.52 | – | – | 48.6 | 0.8 | 96 | -0.2 | 1.52 | 40.8 | 0.9 | 64 | – | – | – | -1.1 | 1.52

Source: FireProtDB (doi:10.1016/j.jmb.2005.09.091)
